# Data published in publication doi:10.1101/2024.04.26.591305 (2024).
# B1: U20 (msfGFPΔC10-Utr28-222) (domain or fragment)
# chain: EHNDVQKKTFTKWINARFSKSGKPPINDMFTDLKDGRKLLDLLEGLTGTSLPKERGSTRVHALNNVNRVLQVLHQNNVELVNIGGTDIVDGNHKLTLGLLWSIILHWQVKDVMKDVMSDLQQTNSEKILLSWVRQTTRPYSQVNVLNFTTSWTDGLAFNAVLHRHKPDLFSWDKVVKMSPIERLEHAFSKAQTYL
# Target: α-skeletal muscle actin filaments (rabbit) (rabbit, UniProt P68135 1-377)
row,Binder,Kd [µM]
1,VADLIKKFESISKEE (domain or fragment) [L45 (msfGFPΔC9-LifeactΔN2)],4.5
2,MGVADLIKKFESI (domain or fragment) [L22 (LifeactΔC4-msfGFPΔN7)],11.3
3,B1,13.2
